Values belong to the substance of their own block, whether it stands above or below them.
Tests used:
[1] = biological target: MCP-1 receptor B (CCR2B) (human) (UniProt P41597); assay: cell-based or functional assay
[2] = biological target: MCP-1 receptor B (CCR2B) (human) (UniProt P41597); assay: competition with 100 pM 125I-MCP-1 on CHO-CCR2B membranes, filtration; mean of 18 assays
[3] = biological target: MCP-1 receptor B (CCR2B) (human) (UniProt P41597); assay: competition with 100 pM 125I-MCP-1 on CHO-CCR2B membranes, filtration; at least 2 assays
[4] = biological target: MCP-1 receptor B (CCR2B) (human) (UniProt P41597); assay: cold competition of unlabelled MCP-1 against 100 pM 125I-MCP-1 on CHO-CCR2B membranes
[5] = biological target: MCP-1 receptor B (CCR2B) (human) (UniProt P41597); assay: equilibrium binding of 125I-MCP-1 to CHO-CCR2B membranes
[6] = biological target: MCP-1 receptor B (CCR2B) (human) (UniProt P41597); assay: competition with 100 pM 125I-MCP-1 on CHO-CCR2B membranes, filtration; mean of 8 assays

Calcium flux (IC50), THP-1 cells [1]: 45 nM
Chemotaxis (IC50), THP-1 cells, 1 nM MCP-1 [1]: 12 nM
IC50 [2]: 1.9 nM
Substance: MCP1(9-76) (SEQ ID NO: 30) (from UniProt P13500 32-99) (ligand)

IC50 [3]: 3.2 nM
Substance: Met-MCP1(9-76) (SEQ ID NO: 31) (from UniProt P13500 32-99) (ligand)

IC50 [4]: 0.11 nM
rise in [Ca2+]i in THP-1 cells (EC50) [1]: 2 nM
Kd [5]: 0.12 nM
Substance: Monocyte Chemoattractant Protein-1 (MCP-1) (from UniProt P13500 24-99) (ligand)

Calcium flux (IC50), THP-1 cells [1]: 109 nM
Chemotaxis (IC50), THP-1 cells, 1 nM MCP-1 [1]: 23 nM
IC50 [2]: 2.5 nM
Substance: [V9A]MCP1(9-76) (SEQ ID NO: 9) (from UniProt P13500 33-99) (ligand)

Chemotaxis (IC50), THP-1 cells, 1 nM MCP-1 [1]: 10.9 nM
IC50 [6]: 3.2 nM
Substance: [V9G]MCP1(9-76) (SEQ ID NO: 26) (from UniProt P13500 33-99) (ligand)

Chemotaxis (IC50), THP-1 cells, 1 nM MCP-1 [1]: 21 nM
IC50 [6]: 2 nM
Substance: [V9T]MCP1(9-76) (SEQ ID NO: 29) (from UniProt P13500 33-99) (ligand)

IC50 [3]: 2.6 nM
Calcium flux (IC50), THP-1 cells [1]: 117 nM
Substance: pGlu-MCP1(9-76) (SEQ ID NO: 32) (from UniProt P13500 32-99) (ligand)

Reference: US6383782
